B1: Regulatory protein NPR4 (Arabidopsis thaliana (Mouse-ear cress)), Q5ICL9 (parent)
chain: MAATAIEPSSSISFTSSHLSNPSPVVTTYHSAANLEELSSNLEQLLTNPDCDYTDAEIIIEEEANPVSVHRCVLAARSKFFLDLFKKDKDSSEKKPKYQMKDLLPYGNVGREAFLHFLSYIYTGRLKPFPIEVSTCVDSVCAHDSCKPAIDFAVELMYASFVFQIPDLVSSFQRKLRNYVEKSLVENVLPILLVAFHCDLTQLLDQCIERVARSDLDRFCIEKELPLEVLEKIKQLRVKSVNIPEVEDKSIERTGKVLKALDSDDVELVKLLLTESDITLDQANGLHYAVAYSDPKVVTQVLDLDMADVNFRNSRGYTVLHIAAMRREPTIIIPLIQKGANASDFTFDGRSAVNICRRLTRPKDYHTKTSRKEPSKYRLCIDILEREIRRNPLVSGDTPTCSHSMPEDLQMRLLYLEKRVGLAQLFFPAEANVAMDVANVEGTSECTGLLTPPPSNDTTENLGKVDLNETPYVQTKRMLTRMKALMKTVETGRRYFPSCYEVLDKYMDQYMDEEIPDMSYPEKGTVKERRQKRMRYNELKNDVKKAYSKDKVARSCLSSSSPASSLREALENPT
partner: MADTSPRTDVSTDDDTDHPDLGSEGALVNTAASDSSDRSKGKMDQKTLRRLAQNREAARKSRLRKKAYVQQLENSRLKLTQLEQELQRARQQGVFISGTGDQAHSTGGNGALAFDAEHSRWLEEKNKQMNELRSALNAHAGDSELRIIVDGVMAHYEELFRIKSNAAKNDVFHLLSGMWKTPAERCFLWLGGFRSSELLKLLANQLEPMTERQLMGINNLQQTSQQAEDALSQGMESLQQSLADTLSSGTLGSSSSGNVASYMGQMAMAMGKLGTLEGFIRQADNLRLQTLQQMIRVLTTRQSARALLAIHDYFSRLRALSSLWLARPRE
B2: Regulatory protein NPR4 (Arabidopsis thaliana (Mouse-ear cress)), Q5ICL9 (parent)
chain: B1 chain
partner: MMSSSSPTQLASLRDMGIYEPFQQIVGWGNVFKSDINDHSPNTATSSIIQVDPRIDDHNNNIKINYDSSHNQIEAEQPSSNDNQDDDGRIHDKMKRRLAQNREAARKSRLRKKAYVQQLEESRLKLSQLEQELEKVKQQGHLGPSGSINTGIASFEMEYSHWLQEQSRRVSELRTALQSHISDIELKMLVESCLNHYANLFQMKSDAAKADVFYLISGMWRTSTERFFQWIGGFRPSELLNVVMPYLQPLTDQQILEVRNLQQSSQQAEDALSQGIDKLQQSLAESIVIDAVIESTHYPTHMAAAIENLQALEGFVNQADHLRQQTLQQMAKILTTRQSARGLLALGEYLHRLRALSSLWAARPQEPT

Variants of: B1
Conditions: with tga2_arath TGA2, P43273

| effect of a mutation on the interaction | Variant |
| --- | --- |
| disrupting interaction | H321Y |

Variants of: B2
Conditions: with tga7_arath TGA7, Q93ZE2

| effect of a mutation on the interaction | Variant |
| --- | --- |
| disrupting interaction | H321Y |
